Our source for the Fusion-Inhibition Titer EC50 values is patent US20050019758A1.

What all share (assay): cell-based or functional assay
Assay [1] addresses F protein of RSV clinical isolate B1-6973 (Respiratory Syncytial Virus).
The target of assay [2] is F protein of RS Long strain virus (native form, on virus and infected VERO cells) (Respiratory Syncytial Virus) (UniProt P12568).
In assay [3] the target is F protein of RSV clinical isolate A1-V1763 (Respiratory Syncytial Virus).
Assay [4] deals with F protein of RSV clinical isolate A3-7062 (Respiratory Syncytial Virus).
Assay [5] has as its target F protein of RSV clinical isolate B2-6556 (Respiratory Syncytial Virus).
Assay [6] has as its target F protein of RSV clinical isolate A2-626 (Respiratory Syncytial Virus).
Assay [7] deals with F protein of RS 9320 (prototype B1) (Respiratory Syncytial Virus).
Assay [8] addresses F protein of RSV clinical isolate B3-447 (Respiratory Syncytial Virus).
Assay [9] concerns the target F protein of RSV clinical isolate A2-847 (Respiratory Syncytial Virus).
Assay [10] addresses F protein of RSV clinical isolate A4-6652 (Respiratory Syncytial Virus).

Sequence of F protein of RS Long strain virus (native form, on virus and infected VERO cells) (Respiratory Syncytial Virus) (P12568 26-574): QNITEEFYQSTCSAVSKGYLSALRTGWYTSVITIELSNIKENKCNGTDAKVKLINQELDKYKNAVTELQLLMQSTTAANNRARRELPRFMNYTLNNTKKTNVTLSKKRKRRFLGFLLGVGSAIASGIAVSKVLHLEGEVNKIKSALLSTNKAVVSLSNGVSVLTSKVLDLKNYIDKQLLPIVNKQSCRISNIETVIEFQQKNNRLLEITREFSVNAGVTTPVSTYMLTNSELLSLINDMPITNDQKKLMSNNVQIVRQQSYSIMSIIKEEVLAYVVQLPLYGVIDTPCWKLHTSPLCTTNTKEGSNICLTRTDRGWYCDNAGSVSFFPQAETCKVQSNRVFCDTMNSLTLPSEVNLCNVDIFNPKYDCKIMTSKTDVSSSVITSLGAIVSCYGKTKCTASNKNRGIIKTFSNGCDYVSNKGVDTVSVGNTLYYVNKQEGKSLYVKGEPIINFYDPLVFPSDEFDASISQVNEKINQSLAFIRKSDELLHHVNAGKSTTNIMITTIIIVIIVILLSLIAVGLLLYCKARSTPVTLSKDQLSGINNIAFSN

Regarding SB 209763 (antibody), the Fusion-Inhibition Titer EC50 amounted to 2.22 µg/mL in assay [1]; 1.3 µg/mL in assay [2]; 1.95 µg/mL in assay [3]; 1.67 µg/mL in assay [4]; 2.05 µg/mL in assay [5]; 0.36 µg/mL in assay [6]. Besides, the Fusion-Inhibition Titer EC50 in assay [7] came out at 2.5 µg/mL; in assay [8], 1.7 µg/mL; in assay [9] it was 0.27 µg/mL; in assay [10] it was 1.52 µg/mL.
